Assay results published in patent publication US20180207276A1, “MODIFIED THERAPEUTIC AGENTS AND COMPOSITIONS THEREOF” (THE CALIFORNIA INSTITUTE FOR BIOMEDICAL RESEARCH, priority 2015, published 2018).
Positions of bridges follow the written chain, without caps; N, C: chain ends. Non-standard residues stand in square brackets, D forms with d. Primed or numbered codes have the meaning given here. Chains are numbered I, II in the order given. No end group written: not given here. *: point of attachment. FA2″ = lipid moiety from Br-FA2: acetamide, two PEG2-propionic acid units, Lys and octadecanedioic acid; X1 = O=C(O)CCCCCCCCCCCCCCCCC(=O)N[C@@H](CCCCNC(=O)CCOCCOCCNC(=O)CCOCCOCCNC(=O)C*)C(=O)O; X2 = O=C(O)CCCCCCCCCCCCCCCCC(=O)N[C@@H](CCCCn1cc(COCCOCCOCCOCCOCCNC(=O)C*)nn1)C(=O)O; X3 = CCCCCCCCCCCCCCCCCC(=O)N[C@@H](CCCCNC(=O)CCOCCOCCOCCOCCOCCNC(=O)C*)C(=O)O; X4 = CCCCCCCCCCCCCC(=O)N[C@@H](CCCCNC(=O)CCOCCOCCOCCOCCOCCNC(=O)C*)C(=O)O; FA183 = acetamide-PEG5-Lys-octadecanedioic acid; ALK = (PEG)5-bromo-alkyne, S-alkylating Cys; FA182 = acetamide-PEG5-Lys-myristic acid; FA186 = acetamide-PEG5-Lys-stearic acid; pGlu = O=C1CC[C@@H](C(=O)O)N1; FA155 = not defined here; FA2 = not defined here

How the values were obtained:
[1] = Mouse in vivo PK study for half-life extension; parameters: species or system CD1 female mice; conditions: 0.3 mg/kg in NH4Ac buffer, plasma levels by cell-based reporter gene assay; for half-life: female, CD1, sc
Protocol: Lipid conjugated relaxin or other therapeutic agents were dosed in mice using sc, po, iv dosing. Plasma levels of TA were determined by LGR7 activation at different time points (e.g., i.v. PK 5 min, 0.5h, 1h, 2h 4h, 8h, 24h, 48h).

LGR7 = biological target: T1, LGR7 (Homo sapiens, UniProt Q9HBX9); assay: LGR7 CRE-Luc reporter gene assay (bioactivity of relaxin peptides); format: cell-based; conditions: HEK293T cells expressing LGR7 and CRE-Luc; for EC50: 18 hours incubation, luciferase readout; for Activity, fold drop compared to relaxin: fold drop relative to relaxin
T1 construct: expressed in transfected cells; host or cells: HEK293T cells stably expressing recombinant LGR7, transduced with CRE-Luc lentivirus
T1 sequence (Q9HBX9 1-757): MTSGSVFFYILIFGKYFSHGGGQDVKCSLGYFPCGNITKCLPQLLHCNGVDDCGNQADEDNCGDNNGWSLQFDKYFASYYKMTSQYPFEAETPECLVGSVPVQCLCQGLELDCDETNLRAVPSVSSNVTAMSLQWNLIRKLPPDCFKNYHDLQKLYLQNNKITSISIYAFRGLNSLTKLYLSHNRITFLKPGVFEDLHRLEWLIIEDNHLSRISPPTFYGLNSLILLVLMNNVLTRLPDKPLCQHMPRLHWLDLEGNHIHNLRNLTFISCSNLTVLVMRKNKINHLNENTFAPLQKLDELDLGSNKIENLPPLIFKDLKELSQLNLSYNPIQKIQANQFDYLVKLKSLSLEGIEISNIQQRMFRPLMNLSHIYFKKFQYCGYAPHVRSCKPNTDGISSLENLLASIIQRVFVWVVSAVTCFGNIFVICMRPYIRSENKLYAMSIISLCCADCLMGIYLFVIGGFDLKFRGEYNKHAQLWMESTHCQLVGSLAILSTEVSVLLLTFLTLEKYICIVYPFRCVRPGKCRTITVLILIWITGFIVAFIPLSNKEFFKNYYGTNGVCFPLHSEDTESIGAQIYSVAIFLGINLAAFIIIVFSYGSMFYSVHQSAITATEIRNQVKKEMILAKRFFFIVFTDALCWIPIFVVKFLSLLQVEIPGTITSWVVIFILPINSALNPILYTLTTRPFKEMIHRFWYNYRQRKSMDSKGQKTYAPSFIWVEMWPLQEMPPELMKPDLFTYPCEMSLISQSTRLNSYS
Protocol: Relaxin 2 signals through leucine-rich repeat-containing GPCRs (i.e LGR7 (RFXR1)). The bioactivity of wild-type relaxin peptides was determined based on the stimulation of adenylate cyclase activity in HEK293T cells stably expressing recombinant LGR7. Stable LGR7 expressing cells were maintained in Dulbecco's modified Eagle's medium/F-12 media supplemented with 200 ng/ml Zeocin (Invitrogen). A cyclic AMP responsive element driven luciferase (CRE-Luc) reporter line was generated by lentiviral transduction of these LGR7 expressing HEK293T cells with CRE-Luc lentivirus (Qiagen) and selected with puromycine (2 μg/mL) for two weeks. A reporter gene assay was used to detect cAMP levels and LGR7 activation by relaxin.
Assay detail: HEK293T cells expressing LGR7 and CRE-Luc are seeded at a density of 5×10^3 cells per well in 50 μL of Dulbecco's modified Eagle's medium/F-12 medium containing 10% FBS in 384-well solid bottom white plates. Cells are pre-incubated at 37° C. overnight. Different concentrations of relaxin peptides (from 0.01 nM to 1000 nM) were added in triplicate, incubated for 18 hours and luciferase activity was detected by adding […], of Bright Glo (Promega). Luminescence was recorded on Envision (Perkin Elmer). EC50 is calculated after non-linear curve fitting (see FIG. 2 for relaxin H2 dose response curve).

in vivo = conditions: female, Dahl salt sensitive (DSS), rat, plasma, sc, 0.3 mg/kg
Protocol: To ensure accurate determination of active relaxins, plasma samples collected at intervals between 0-24 hrs were analyzed using the cell-based reporter gene assay.
Bioanalysis: Serum samples were diluted (1:100) in 5 point serial dilutions (1:3) and measured RXFP1 luciferase reporter activity following assay protocol. Injected peptide were used as a standard to get standard curve and obtained parameters for Bottom, Top, EC50, Hill Slope. Obtained activity values (RLU) were selected (in the linear range of the standard curve) were used to calculate the concentrations in plasma (nmol/L) using equation from standard curve (Y=Bottom+(Top-Bottom)/(1+10̂((Log IC50−X)*Hill Slope))

[2] = biological target: T2, LGR7 (relaxin 2 receptor), recombinant, stably expressed in HEK293T cells with a CRE-Luc reporter (UniProt Q9HBX9 1-757, limits assumed); assay: cell-based or functional assay
T2 sequence (looked up): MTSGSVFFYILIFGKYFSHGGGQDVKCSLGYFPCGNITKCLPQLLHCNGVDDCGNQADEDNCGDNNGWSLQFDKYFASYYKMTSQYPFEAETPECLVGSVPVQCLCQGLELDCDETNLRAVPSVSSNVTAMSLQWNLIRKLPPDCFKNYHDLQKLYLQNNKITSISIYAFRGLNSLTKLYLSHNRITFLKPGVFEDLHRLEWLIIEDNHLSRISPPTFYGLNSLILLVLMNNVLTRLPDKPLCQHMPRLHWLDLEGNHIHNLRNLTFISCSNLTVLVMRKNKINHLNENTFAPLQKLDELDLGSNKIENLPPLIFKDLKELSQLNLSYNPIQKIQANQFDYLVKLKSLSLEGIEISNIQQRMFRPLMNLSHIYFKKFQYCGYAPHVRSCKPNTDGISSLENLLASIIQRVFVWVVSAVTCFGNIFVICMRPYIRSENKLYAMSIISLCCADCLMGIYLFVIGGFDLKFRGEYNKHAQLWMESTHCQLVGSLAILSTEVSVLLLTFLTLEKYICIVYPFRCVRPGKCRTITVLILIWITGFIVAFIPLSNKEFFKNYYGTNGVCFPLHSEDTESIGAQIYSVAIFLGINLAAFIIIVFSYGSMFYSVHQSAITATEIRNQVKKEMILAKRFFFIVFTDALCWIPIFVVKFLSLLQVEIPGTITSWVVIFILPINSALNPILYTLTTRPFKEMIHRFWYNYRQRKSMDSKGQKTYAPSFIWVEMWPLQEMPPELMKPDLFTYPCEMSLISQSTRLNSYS

Row | Molecule | half-life [1] | Activity, fold drop compared to relaxin (LGR7) | Activity, fold drop compared to relaxin [2] | LGR7 EC50 (pM), CRE-Luc reporter in HEK293T cells expressing LGR7 [2] | other results
1 | I: ASWMEEVIKLCGRELVRAQIAICGMSTWS / II: QC(X2)YSALANKCCHVGCTKRSLARFC (disulfide I:11-II:11, I:23-II:24, II:10-II:15) [compound 3] | 6 h | 12 |  |  | EC50 (LGR7): 0.21 nM
2 | I: H-ASWMEEVIKLCGRELVRAQIAICGMSTWS / II: H-QC(X1)YSALANKCCHVGCTKRSLARFC (disulfide I:11-II:11, I:23-II:24, II:10-II:15) [compound 1] | 8 h | 12 |  |  | EC50 (LGR7): 0.21 nM
3 | Relaxin-wt [reference compound] |  |  |  |  | Half-life (mouse, sc) [1]: 0.7 h
4 | Relaxin-B:D1A (chain 1 ASWMEEVIKLCGRELVRAQIAICGMSTWS; chain 2 QLYSALANKCCHVGCTKRSLARFC) [unconjugated relaxin analog with D1A substitution in the B chain] |  |  |  |  | Half-life (mouse, sc) [1]: 0.8 h
5 | I: ASWMEEVIKLCGRELVRAQIAICGMSTWS / II: QLYSALANKCCHC(X1)GCTKRSLARFC (disulfide I:11-II:11, I:23-II:24, II:10-II:15) [compound 2] | 8 h | 15 |  |  | 
6 | I: H-ASWMEEVIKLCGRELVRAQIAICGMSTWS / II: [pGlu]C(X1)YSALANKCCHVGCTKRSLARFC (disulfide I:11-II:11, I:23-II:24, II:10-II:15) [compound 5] |  | 12 |  |  | half-life (in vivo): 16 h
7 | I: ASWMEEVIKLCGRELVRAQIAICGMSTWS / II: QC(X3)YSALANKCCHVGCTKRSLARFC (disulfide I:11-II:11, I:23-II:24, II:10-II:15) [compound 9] | 3.4 h | 10 |  |  | 
8 | CC[C@H](C)[C@@H]1NC(=O)[C@H](C)NC(=O)[C@H]([C@@H](C)CC)NC(=O)[C@H](CCC(N)=O)NC(=O)[C@H](C)NC(=O)[C@H](CCCNC(=N)N)NC(=O)[C@H](C(C)C)NC(=O)[C@H](CC(C)C)NC(=O)[C@H](CCC(=O)O)NC(=O)[C@H](CCCNC(=N)N)NC(=O)CNC(=O)[C@@H](NC(=O)[C@H](CC(C)C)NC(=O)[C@H](CCCCN)NC(=O)[C@@H](NC(=O)[C@@H](NC(=O)[C@H](CCC(=O)O)NC(=O)[C@H](CCC(=O)O)NC(=O)[C@H](CCSC)NC(=O)[C@H](Cc2c[nH]c3ccccc23)NC(=O)[C@H](CO)NC(=O)[C@H](C)N)C(C)C)[C@@H](C)CC)CSSC[C@@H]2NC(=O)[C@@H](NC(=O)[C@H](CCCCN)NC(=O)[C@H](CC(N)=O)NC(=O)[C@H](C)NC(=O)[C@H](CC(C)C)NC(=O)[C@H](C)NC(=O)[C@H](CO)NC(=O)[C@H](Cc3ccc(O)cc3)NC(=O)[C@H](CSCC(=O)NCCOCCOCCOCCOCCOCCOCCOCCOCCC(=O)NCCCC[C@H](NC(=O)CCCCCCCCCCCCCCCCC(=O)O)C(=O)O)NC(=O)[C@@H](N)CCC(N)=O)CSSC[C@H](NC(=O)CNC(=O)[C@H](C(C)C)NC(=O)[C@H](Cc3c[nH]cn3)NC2=O)C(=O)N[C@@H]([C@@H](C)O)C(=O)N[C@@H](CCCCN)C(=O)N[C@@H](CCCNC(=N)N)C(=O)N[C@@H](CO)C(=O)N[C@@H](CC(C)C)C(=O)N[C@@H](C)C(=O)N[C@@H](CCCNC(=N)N)C(=O)N[C@@H](Cc2ccccc2)C(=O)N[C@H](C(=O)O)CSSC[C@@H](C(=O)NCC(=O)N[C@@H](CCSC)C(=O)N[C@@H](CO)C(=O)N[C@H](C(=O)N[C@@H](Cc2c[nH]c3ccccc23)C(=O)N[C@@H](CO)C(=O)O)[C@@H](C)O)NC1=O [compound 8] | 9.5 h | 8 |  |  | 
9 | I: ASWMEEVIKLCGRELVRAQIAICGMSTWS / II: QC(X4)YSALANKCCHVGCTKRSLARFC (disulfide I:11-II:11, I:23-II:24, II:10-II:15) [compound 7] | 8 h | 2 |  |  | 
10 | Relaxin-B:D1A-A:Q1:V13C-FA2 (ligand, ends and bridges not checked) chain 1: ASWMEEVIKLCGRELVRAQIAICGMSTWS chain 2: QLYSALANKCCHC(FA2)GCTKRSLARFC |  |  | 15 fold | 250 pM | 
11 | Relaxin-wt (ligand, ends and bridges not checked; cysteine pairing not given here) chain 1: DSWMEEVIKLCGRELVRAQIAICGMSTWS chain 2: QLYSALANKCCHVGCTKRSLARFC |  |  | 1 fold | ~40 pM | 
12 | Relaxin-B:D1A-A:Q1-L2C-FA186 (ligand, ends and bridges not checked) chain 1: ASWMEEVIKLCGRELVRAQIAICGMSTWS chain 2: QC(FA186)YSALANKCCHVGCTKRSLARFC |  |  | 10 fold | 235 pM | 
13 | Relaxin-B:D1A-A:Q1-L2C-FA183 (ligand, ends and bridges not checked) chain 1: ASWMEEVIKLCGRELVRAQIAICGMSTWS chain 2: QC(FA183)YSALANKCCHVGCTKRSLARFC |  |  | 8 fold | 174 pM | 
14 | Relaxin-B:D1A-A:pQ1-L2C-FA2 (ligand, pyroglutamate (pQ) at position 1; Cys 2 S-alkylated with FA2 (from Br-FA2, Example 6)) chain 1: ASWMEEVIKLCGRELVRAQIAICGMSTWS chain 2: XCYSALANKCCHVGCTKRSLARFC |  |  | 12 fold | 350 pM | 
15 | Relaxin-B:D1A-A:Q1-L2C-FA155 (ligand, ends and bridges not checked) chain 1: ASWMEEVIKLCGRELVRAQIAICGMSTWS chain 2: QC(FA155)YSALANKCCHVGCTKRSLARFC |  |  | 12 fold | 210 pM | 
16 | Relaxin-B:D1A-A:Q1-L2C-ALK (ligand, ends and bridges not checked) chain 1: ASWMEEVIKLCGRELVRAQIAICGMSTWS chain 2: QC(ALK)YSALANKCCHVGCTKRSLARFC |  |  | 1 fold | 17 to 50 pM | 
17 | Relaxin-B:D1A (ligand, ends and bridges not checked; cysteine pairing not given here) chain 1: ASWMEEVIKLCGRELVRAQIAICGMSTWS chain 2: QLYSALANKCCHVGCTKRSLARFC |  |  | 1 fold | 45 pM | 
18 | Relaxin-B:D1A-A:Q1-L2C-FA2 (ligand, ends and bridges not checked) chain 1: ASWMEEVIKLCGRELVRAQIAICGMSTWS chain 2: QC(FA2″)YSALANKCCHVGCTKRSLARFC |  |  | 12 fold | 210 pM | 
19 | Relaxin-B:D1A-A:Q1-L2C-FA182 (ligand, ends and bridges not checked) chain 1: ASWMEEVIKLCGRELVRAQIAICGMSTWS chain 2: QC(FA182)YSALANKCCHVGCTKRSLARFC |  |  | 2 fold | 51 pM | 
